Measured values taken from paper PMC5973699.

Legend:
[1] = biological target: MabSelect SuRe resin ligand (engineered Protein A; alkaline resistant protein A domain); assay: capture on affinity resin
[2] = biological target: GammaBind Plus resin ligand (affinity improved protein G); assay: capture on affinity resin

Question: With human IgG1 (pertuzumab) (antibody) as the substance, how does the binding capacity, tip column, 2 pipetting cycles [1] read?
Answer: 37 µg

Question: What about the binding capacity, tip column, 4 pipetting cycles [1] of the same substance?
Answer: 46 µg

Question: And the binding capacity, tip column, 6 pipetting cycles (µg human IgG1 per µL of resin) [1]?
Answer: 52

Question: And the binding capacity, tip column, 8 pipetting cycles (µg human IgG1 per µL of resin) [1]?
Answer: 54

Question: And the binding capacity, tip column, 9 pipetting cycles (µg human IgG1 per µL of resin) [1]?
Answer: 55

Question: What about the static binding capacity (batch mode) (µg human IgG1 per µL of resin) [1] of the same substance?
Answer: 62

Question: How did the Binding capacity (Batch Mode) (µg rat IgG2a /µL resin) [2] turn out when rat IgG2a (antibody) was run?
Answer: 15

Question: With mouse IgG1 (antibody) as the substance, how does the binding capacity (µg mouse IgG1 per µL resin) [1] read?
Answer: 25
